In patent publication US20260226158A1:

Biological target: human NKp46 on human NKp46-expressing CHO-K1 cells (human) (UniProt O76036)
Assay: flow cytometry on human NKp46-expressing CHO-K1 cells, Alexa Fluor 647 anti-human IgG; upper row of the box

human NKp46 on human NKp46-expressing CHO-K1 cells (human), sequence (O76036 22-304): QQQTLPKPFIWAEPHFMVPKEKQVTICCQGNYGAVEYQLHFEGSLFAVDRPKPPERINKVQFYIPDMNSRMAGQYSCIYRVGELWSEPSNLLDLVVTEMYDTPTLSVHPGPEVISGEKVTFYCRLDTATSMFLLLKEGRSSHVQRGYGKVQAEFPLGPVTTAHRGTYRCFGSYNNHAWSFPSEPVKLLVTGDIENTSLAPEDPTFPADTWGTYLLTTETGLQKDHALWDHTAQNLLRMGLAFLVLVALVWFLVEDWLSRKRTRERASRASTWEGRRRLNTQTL

- Geometric Mean : Alexa Fluor 647-H: 206
Substance: Human IgG (antibody)
